In patent publication US20260159585A1 (SHANGHAI HENLIUS BIOTECH, published 2026):

How the values were obtained:
[1] = biological target: T1, hCD47-His antigen (human, UniProt Q08722 19-139, limits assumed); experiment: ELISA on coated hCD47-His, HRP anti-human Fc, OD450; plate3
T1 construct: also called human CD47; not shown: His tag

[2] = biological target: T2, human CD47 expressed on cells (human, UniProt Q08722 19-323); experiment: FACS, whole cell binding to human primary red blood cells, FITC anti-human Fc; lower panel
T2 construct: whole, on cells; One molecule for all cell types; also called CD47 on Jurkat cells; CD47 on human red blood cells (RBCs)

[3] = biological target: T1, hCD47-His antigen; experiment: ELISA on coated hCD47-His, HRP anti-human Fc, OD450; plate4
[4] = biological target: T2, human CD47 expressed on cells; experiment: FACS, whole cell binding to human primary red blood cells, FITC anti-human Fc; upper panel
[5] = biological target: T1, hCD47-His antigen; experiment: ELISA on coated hCD47-His, HRP anti-human Fc, OD450; plate1
[6] = biological target: T1, hCD47-His antigen; experiment: ELISA on coated hCD47-His, HRP anti-human Fc, OD450; plate2

EC50 (read off the curve) [1]: ~0.1 nM | EC50 (read off the curve) [2]: ~0.3 nM | EC50 (read off the curve) [3]: ~0.07 nM | EC50 (read off the curve) [4]: ~0.2 nM | EC50 (read off the curve) [5]: ~0.1 nM | EC50 (read off the curve) [6]: ~0.08 nM
B1: M1 #21 (antibody, V domains shown)
VH: QVQLQQWGAGLLKPSETLSLTCAVYGGSFSGYYWSWIRQPPGKGLEWIGEINQSGSTNYNPSLKSRVTISVDTSKNQFSLRLSSVTAADTAMYYCARFTGRPYYGMDVWGQGTTVTVSS
VL: SYELTQPPSVSATPGQRVTISCSGSESNIGSHKVKWYQQFAGAAPRLLIHGNDQRFSGVPDRFSGSKSGTSASLAISGLQSEDEADYYCAAWDDSLYGRVFGGGTKLTVL
